Results reported in patent publication US20160002344A1 (ONCOMED PHARMACEUTICALS, published 2016).

Experiments:
[1] = target: T1, recombinant mouse RSPO1-Fc protein (mouse, UniProt Q9Z132 21-265, limits assumed); experiment: SPR (Biacore 2000), RSPO1-Fc immobilized on CM5 chip, antibody injected 100 nM to 0.78 nM
T1 construct: Construct not described; not shown: Fc; not described
Experimental: (§1) The KD of h89M5-H2L2 was determined using a Biacore 2000 system from Biacore LifeSciences (GE Healthcare). Recombinant human RSPO1-Fc or mouse RSPO1-Fc proteins were immobilized on CM5 chips using standard amine-based chemistry (NHS/EDC). The antibodies were serially diluted 2-fold from 100 nM to 0.78 nM in HBS-P (0.01M HEPES pH7.4, 0.15M NaCl, 0.005% v/v Surfactant P20) and were injected over the chip surface. Kinetic data were collected over time and were fit using the simultaneous global fit equation to yield affinity constants (KD values) for each antibody.

[2] = target: T2, recombinant human RSPO1-Fc fusion protein (human, UniProt Q2MKA7 21-263); experiment: as above
T2 construct: not shown: human Fc region
T2 sequence (Q2MKA7 21-263): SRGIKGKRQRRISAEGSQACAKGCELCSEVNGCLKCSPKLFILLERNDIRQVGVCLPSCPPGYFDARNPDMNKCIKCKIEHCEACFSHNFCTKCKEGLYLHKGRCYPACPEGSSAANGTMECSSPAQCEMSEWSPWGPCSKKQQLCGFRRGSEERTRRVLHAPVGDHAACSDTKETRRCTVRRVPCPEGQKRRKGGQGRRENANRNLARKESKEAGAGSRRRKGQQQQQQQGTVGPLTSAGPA
Experimental: as §1

T1 sequence (Q9Z132 21-265 limits assumed): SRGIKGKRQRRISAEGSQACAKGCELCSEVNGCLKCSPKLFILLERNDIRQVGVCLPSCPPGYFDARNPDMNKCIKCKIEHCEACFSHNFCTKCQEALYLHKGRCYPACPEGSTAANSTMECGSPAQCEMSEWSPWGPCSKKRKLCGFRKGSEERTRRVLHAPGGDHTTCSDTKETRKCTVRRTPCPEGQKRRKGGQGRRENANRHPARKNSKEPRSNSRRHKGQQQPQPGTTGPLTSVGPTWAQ

B1: humanized anti-RSPO1 antibody h89M5-H2L2 (antibody, human IgG2, kappa, V domains shown)
VH: QVQLVQSGAEVKKPGASVKVSCKTSGYTFTGYTMHWVRQAPGQRLEWMGGINPNNGGTTYNQNFKGRVTITRDTSASTAYMELSSLRSEDTAVYYCARKEFSDGYYFFAYWGQGTLVTVSS
VL: DIQMTQSPSSLSASVGDRVTITCKASQDVIFAVAWYQQKPGKAPKLLIYWASTRHTGVPSRFSGSGSGTDYTLTISSLQPEDFATYYCQQHYSTPWTFGGGTKVEIKR
notes: also called humanized 89M5; 89M5-H2 with 89M5-L2
Work on B1 yielded a Kd [1] of under 0.1 nM and a Kd [2] of under 0.1 nM.
